Assay results published in patent publication US20130289246A1.
Like-named read-outs stand apart in the source and are kept apart here.

Columns and labels:
Assay in all cases: ELISA, supernate
[1] = target: first-generation H1 LAH construct H1frThrST (Influenza A virus (H1))
[2] = target: first-generation H1 LAH construct H1frThrST (Influenza A virus (H1)); remark: listed apart in the source
[3] = target: first-generation H3 LAH construct H3frThrST (Influenza A virus (H3))

B1: mAb 5I17 (antibody, V domains shown)
VH: EVQLVESGGGVVQPGRSLRLSCAASGFSFSNYAMHWVRQAPGKGLEWVALISFDGSDKYYADSVKGRFTMSRDNSKNTLYLQMNSLRAEDTAVYYCARDEPYCGGDCFAFDVWGQGTMVTVS
VL: DIQLTQSPSSLSASAGDRVSMTCRASQIISSSLNWYQQKPGKAPKLLIYAASNLQSGVPSRFSGSGSGTDFTLTISSLQPEDFATYYCQQSYSTPPELTFGGGTKVDIKR
OD [1]: 0.078 OD | OD [2]: 0.07 OD | OD [3]: 0.07 OD
